Earlier results on 1 substance are cited in article PMC10105536.

Values joined by “and” are separate entries in the source; they are usually repeats but may differ in a detail not shown here. Identical values can stand only once.

In general, Kd refers to the concentration at which binding is half-saturated.

This data set concerns the target EGFR (Homo sapiens) (UniProt P00533).

EGF (from UniProt P01133): the Kd was 0.3 nM and 2 nM.
